In publication PMC9616523:

Assays:
[1] = target: human FcγRIIIa (human) (UniProt P08637)
[2] = target: human FcγRI (human) (UniProt P12314); assay: SPR; Biacore T200; hFcγRI captured on an NTA chip loaded with Ni2+ (≈200 RU); AvFc flowed over, 5 concentrations from 324 nM in 1:3 dilutions; regeneration 350 mM EDTA; 1:1 binding model
[3] = target: human FcγRIIIa (human) (UniProt P08637); assay: SPR; Biacore T200; receptor captured by its 6xHis tag on an anti‐6xHis antibody amine‐coupled to a CM5 chip; AvFc variants flowed over, 5 concentrations from 2 μM in 1:2 dilutions, 30 μL/min, 240 s association, 600 s dissociation; 1:1 binding model
[4] = target: mouse FcγRIV (mouse); assay: as above
Chain of mouse FcγRIV (mouse) (A0A0B4J1G0 21-203): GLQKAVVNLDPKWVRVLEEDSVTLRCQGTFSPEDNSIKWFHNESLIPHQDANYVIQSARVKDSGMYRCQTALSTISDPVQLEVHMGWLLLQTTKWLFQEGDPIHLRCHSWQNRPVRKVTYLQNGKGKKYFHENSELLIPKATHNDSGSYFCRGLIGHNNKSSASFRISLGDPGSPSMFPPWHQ

Chain of human FcγRI (human) (P12314 16-292): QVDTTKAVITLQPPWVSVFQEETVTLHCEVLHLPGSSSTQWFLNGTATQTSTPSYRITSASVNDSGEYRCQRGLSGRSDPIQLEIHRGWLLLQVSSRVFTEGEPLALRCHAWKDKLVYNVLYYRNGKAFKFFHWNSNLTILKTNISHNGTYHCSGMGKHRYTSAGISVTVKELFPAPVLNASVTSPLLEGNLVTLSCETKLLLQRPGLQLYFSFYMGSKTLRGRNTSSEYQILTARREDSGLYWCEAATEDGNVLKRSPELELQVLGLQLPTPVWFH

Substance | ADCC reporter assay: luciferase in Jurkat effector cells expressing hFcγRIIIa, B16F10 target cells, AvFc 650 nM to 8.32 pM; EC50 [1] | ADCC reporter assay: luciferase in Jurkat effector cells expressing hFcγRIIIa, B16F10 target cells, AvFc 650 nM to 8.32 pM; highest luciferase induction [1] | fold increase in affinity over AvFc^WT [2] | fold increase in affinity over AvFc^WT [3] | fold increase in affinity over AvFc^WT [4]
Avaren‐Fc expressed in glycoengineered ΔXylT/ΔFucT N. benthamiana (AvFc^ΔXF) (Fc fusion) | 2.75 nM | 5.5 fold | 1.9 fold | 3.8 fold | 5.5 fold
Avaren‐Fc expressed in wild‐type N. benthamiana (AvFc^WT) (Fc fusion) | 13.8 nM | 2.9 fold | – | – | –
